The values that follow come from the Human Domainome abundance scans (Beltran et al. 2025).

± gives the uncertainty stated by the source.

The chains are these.
B1: Intersectin-2, residues 1129 to 1183; numbered along this chain, Q9NZM3 (parent)
chain: VCQVIAMYDYAANNEDELSFSKGQLINVMNKDDPDWWQGEINGVTGLFPSNYVKM

Variants of B1 are the subject of this series. Kind of series: abundance fitness (aPCA) (normalised: wild type 0, dead -1); higher = more abundant; growth selection in yeast, the domain comes from the species named. As to conditions: Homo sapiens.
Regarding VCQVIAMYDYAANNEDELSFSKGQLINVMNKDDPDWWQGEINGVTTLFPSNYVKM [G46T], the abundance fitness is -0.788 ± 0.11.
As for VCQVIAMYDYAANNEDELSFSKGQLINVMNKDDPDWWQGEINGVTKLFPSNYVKM [G46K], the abundance fitness was -0.1 ± 0.033.
With VCQVIAMYDYAANNEDELSFSKGQLINVMNKDDPDWWQGEINGVTLLFPSNYVKM [G46L], the abundance fitness was -0.701 ± 0.06.
Consider VCQVIAMYDYAANNEDELSFSKGQLINVMNKDDPDWWQGEINGVTYLFPSNYVKM [G46Y], for which the abundance fitness was -0.807 ± 0.21.
Turning to VCQVIAMYDYAANNEDELSFSKGQLINVMNKDDPDWWQGEINGVTRLFPSNYVKM [G46R], the abundance fitness was -0.318 ± 0.037.
For VCQVIAMYDYAANNEDELSFSKGQLINVMNKDDPDWWQGEINGVTQLFPSNYVKM [G46Q], the abundance fitness was -0.945 ± 0.082.
VCQVIAMYDYAANNEDELSFSKGQLINVMNKDDPDWWQGEINGVTELFPSNYVKM [G46E]: the abundance fitness is -0.973 ± 0.056.
Regarding VCQVIAMYDYAANNEDELSFSKGQLINVMNKDDPDWWQGEINGVTSLFPSNYVKM [G46S], the abundance fitness is -0.764 ± 0.047.
With VCQVIAMYDYAANNEDELSFSKGQLINVMNKDDPDWWQGEINGVTILFPSNYVKM [G46I] the figure was -1.14 ± 0.22.
With VCQVIAMYDYAANNEDELSFSKGQLINVMNKDDPDWWQGEINGVTALFPSNYVKM [G46A], the abundance fitness is -0.137 ± 0.03.
For the variant VCQVIAMYDYAANNEDELSFSKGQLINVMNKDDPDWWQGEINGVTHLFPSNYVKM [G46H], the abundance fitness is -1.05 ± 0.1.
Under VCQVIAMYDYAANNEDELSFSKGQLINVMNKDDPDWWQGEINGVTNLFPSNYVKM [G46N] stands -0.483 ± 0.042; under VCQVIAMYDYAANNEDELSFSKGQLINVMNKDDPDWWQGEINGVTCLFPSNYVKM [G46C], -0.606 ± 0.068.
In the case of VCQVIAMYDYAANNEDELSFSKGQLINVMNKDDPDWWQGEINGVTMLFPSNYVKM [G46M], the abundance fitness is -1.06 ± 0.15.
Regarding VCQVIAMYDYAANNEDELSFSKGQLINVMNKDDPDWWQGEINGVTPLFPSNYVKM [G46P], the abundance fitness was -1.01 ± 0.17.
Take VCQVIAMYDYAANNEDELSFSKGQLINVMNKDDPDWWQGEINGVTFLFPSNYVKM [G46F]: the abundance fitness is -0.864 ± 0.27.
Consider VCQVIAMYDYAANNEDELSFSKGQLINVMNKDDPDWWQGEINGVTWLFPSNYVKM [G46W], for which the abundance fitness was -0.92 ± 0.083.
With VCQVIAMYDYAANNEDELSFSKGQLINVMNKDDPDWWQGEINGVTDLFPSNYVKM [G46D] the figure was -0.799 ± 0.13.
With VCQVIAMYDYAANNEDELSFSKGQLINVMNKDDPDWWQGEINGVSGLFPSNYVKM [T45S], the abundance fitness is -0.003 ± 0.041.
For VCQVIAMYDYAANNEDELSFSKGQLINVMNKDDPDWWQGEINGVRGLFPSNYVKM [T45R], the abundance fitness is -0.076 ± 0.044.
For the variant VCQVIAMYDYAANNEDELSFSKGQLINVMNKDDPDWWQGEINGVWGLFPSNYVKM [T45W], the abundance fitness was -0.153 ± 0.07.
With VCQVIAMYDYAANNEDELSFSKGQLINVMNKDDPDWWQGEINGVVGLFPSNYVKM [T45V] the figure was -0.092 ± 0.049; with VCQVIAMYDYAANNEDELSFSKGQLINVMNKDDPDWWQGEINGVTGLFDSNYVKM [P49D], -0.482 ± 0.088.
Turning to VCQVIAMYDYAANNEDELSFSKGQLINVMNKDDPDWWQGEINGVTGLFYSNYVKM [P49Y], the abundance fitness was -0.104 ± 0.097.
As for VCQVIAMYDYAANNEDELSFSKGQLINVMNKDDPDWWQGEINGVTGLFFSNYVKM [P49F], the abundance fitness was -0.358 ± 0.032.
For the variant VCQVIAMYDYAANNEDELSFSKGQLINVMNKDDPDWWQGEINGVTGLFTSNYVKM [P49T], the abundance fitness is -0.746 ± 0.099.
As to VCQVIAMYDYAANNEDELSFSKGQLINVMNKDDPDWWQGEINGVTGLFKSNYVKM [P49K], the abundance fitness is -0.017 ± 0.041.
On to VCQVIAMYDYAANNEDELSFSKGQLINVMNKDDPDWWQGEINGVTGLFESNYVKM [P49E], for which the abundance fitness is -0.442 ± 0.037.
Under VCQVIAMYDYAANNEDELSFSKGQLINVMNKDDPDWWQGEINGVTGLFASNYVKM [P49A] stands -0.193 ± 0.052; under VCQVIAMYDYAANNEDELSFSKGQLINVMNKDDPDWWQGEINGVTGLFSSNYVKM [P49S], -0.195 ± 0.035; under VCQVIAMYDYAANNEDELSFSKGQLINVMNKDDPDWWQGEINGVTGLFNSNYVKM [P49N], -0.106 ± 0.062.
VCQVIAMYDYAANNEDELSFSKGQLINVMNKDDPDWWQGEINGVTGLFRSNYVKM [P49R]: the abundance fitness turned out to be 0.017 ± 0.039.
Turning to VCQVIAMYDYAANNEDELSFSKGQLINVMNKDDPDWWQGEINGVTGLFMSNYVKM [P49M], the abundance fitness is -0.086 ± 0.05.
On to VCQVIAMYDYAANNEDELSFSKGQLINVMNKDDPDWWQGEINGVTGLFISNYVKM [P49I], for which the abundance fitness was -0.49 ± 0.11.
VCQVIAMYDYAANNEDELSFSKGQLINVMNKDDPDWWQGEINGVTGLFHSNYVKM [P49H]: the abundance fitness is -0.1 ± 0.082.
On to VCQVIAMYDYAANNEDELSFSKGQLINVMNKDDPDWWQGEINGVTGLFLSNYVKM [P49L], for which the abundance fitness was -0.143 ± 0.032.
On to VCQVIAMYDYAANNEDELSFSKGQLINVMNKDDPDWWQGEINGVTGLFQSNYVKM [P49Q], for which the abundance fitness is -0.129 ± 0.049.
Under VCQVIAMYDYAANNEDELSFSKGQLINVMNKDDPDWWQGEINGVTGLFVSNYVKM [P49V] stands -0.782 ± 0.059; under VCQVIAMYDYAANNEDELSFSKGQLINVMNKDDPDWWQGEINGVTGLFPANYVKM [S50A], -0.046 ± 0.043; under VCQVIAMYDYAANNEDELSFSKGQLINVMNKDDPDWWQGEINGVTGLFPNNYVKM [S50N], -0.1 ± 0.044.
With VCQVIAMYDYAANNEDELSFSKGQLINVMNKDDPDWWQGEINGVTGLFPLNYVKM [S50L] the figure was -0.166 ± 0.03; with VCQVIAMYDYAANNEDELSFSKGQLINVMNKDDPDWWQGEINGVTGLFPINYVKM [S50I], -0.084 ± 0.066.
As to VCQVIAMYDYAANNEDELSFSKGQLINVMNKDDPDWWQGEINGVTGLFPGNYVKM [S50G], the abundance fitness is -0.109 ± 0.038.
For VCQVIAMYDYAANNEDELSFSKGQLINVMNKDDPDWWQGEINGVTGLFPPNYVKM [S50P], the abundance fitness is -0.015 ± 0.031.
For the variant VCQVIAMYDYAANNEDELSFSKGQLINVMNKDDPDWWQGEINGVTGLFPENYVKM [S50E], the abundance fitness is -0.266 ± 0.056.
Take VCQVIAMYDYAANNEDELSFSKGQLINVMNKDDPDWWQGEINGVTGLFPTNYVKM [S50T]: the abundance fitness was -0.084 ± 0.045.
With VCQVIAMYDYAANNEDELSFSKGQLINVMNKDDPDWWQGEINGVTGLFPDNYVKM [S50D] the figure was -0.98 ± 0.16; with VCQVIAMYDYAANNEDELSFSKGQLINVMNKDDPDWWQGEINGVTGLFPKNYVKM [S50K], -0.074 ± 0.055.
